Source: doi:10.1101/2025.11.19.685371v1 (bioRxiv, 2025)

Experiments:
Thioflavin T = type: physicochemical; conditions: 2.5 μM Aβ in PBS, 20 μM ThT, room temperature, shaking 100 rpm between reads
[1] = system: immortalized human cortical astrocytes; test: Cell viability of astrocytes; type: cell-based; conditions: 4 μM Aβ, 24 hours, 37°C; three biological replicates
[2] = FCS size characterization; type: physicochemical; conditions: individual 30 s FCS measurements, 10 per sample; three preparations

## Aβ monomers: Aβ42 peptide with methionine as N-terminal residue, recombinantly expressed in E. coli, SEC-purified aggregate-free monomer
Thioflavin T
  ThT aggregation t1/2: 1.32 ± 0.13 h

## Aβ oligomers: stable pre-formed Aβ oligomers prepared by the protocol of Barghorn et al. with SDS
[1]
  toxicity of Aβ to astrocytes (cell viability): significantly higher toxicity
[2]
  CV of sizes within the same preparation: 17 ± 2%
